From PMC11532494 (Nature Communications, 2024)
“And” between values parts separate entries of the source, which are not always exact repeats. Equal values may be shown once. Read-outs that look alike come from different tables or passages of the source. No end group written: not given here. *: point of attachment. AMC = Cc1cc(=O)oc2cc(N*)ccc12

Columns and labels:
VsHdaH (1b) = format: biochemical, Vibrio sp.
RsPrpH (1b) = assay: Substrate screening assay (acyl-peptide-AMC); format: biochemical, Rhizorhabdus sp.
RwDmhA (1b) = RwDmhA (1b) (Rhizorhabdus wittichii, UniProt A0A067XIQ6); format: biochemical
KpHdaH (1b) = KpHdaH (1b) (Klebsiella pneumoniae, UniProt A0A377Z5F6); format: biochemical
BsAcuC (2c) = target: T1, BsAcuC (2c) (Bacillus subtilis, UniProt P39067); assay: Substrate screening assay (acyl-peptide-AMC); format: biochemical
T1 construct: made in house; host or cells: E. coli BL21 (DE3)
T1 sequence (P39067 1-387): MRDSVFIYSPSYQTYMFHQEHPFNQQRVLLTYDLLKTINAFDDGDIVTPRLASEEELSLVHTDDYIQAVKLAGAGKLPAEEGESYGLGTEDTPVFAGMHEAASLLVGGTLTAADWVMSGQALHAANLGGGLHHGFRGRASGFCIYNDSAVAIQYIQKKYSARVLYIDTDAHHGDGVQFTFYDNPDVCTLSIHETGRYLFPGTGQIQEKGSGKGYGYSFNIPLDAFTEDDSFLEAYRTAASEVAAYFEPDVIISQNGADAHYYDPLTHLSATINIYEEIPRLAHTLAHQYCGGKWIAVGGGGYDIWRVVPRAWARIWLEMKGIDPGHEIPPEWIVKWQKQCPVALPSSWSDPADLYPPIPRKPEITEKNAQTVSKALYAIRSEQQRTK
Protocol: (§1) Experiments with SIRT2 and SIRT5 were supplemented with NAD^+ (500 µM). Thereafter, a solution of trypsin (25 µL, 5.0 mg/mL; final concentration of 2.5 mg/mL) was added, and the development of the assay was allowed to proceed for 90 min at room temperature before fluorescence analysis. […] To this end, a single category is given to all conversions >48% on the heatmap. […] For the H4-derived peptide LGKbio no positive control was available.

VcHdaH (5b) = format: biochemical, Vibrio cholerae
PsApaH (4) = PsApaH (4) (Pseudomonas sp. M30-35, UniProt A0A1Y0KY79); format: biochemical
Protocol: as §1

LcApaH (3) = LcApaH (3) (Legionella cherrii, UniProt A0A0W0SGS1); format: biochemical
LpApaH (3) = LpApaH (3) (Legionella pneumophila, UniProt A0A2S6EWV0); format: biochemical
Controls [1] = format: biochemical
Controls [2] = format: biochemical; remark: listed apart in the source
crystal structure = target: the molecule itself; assay: crystal structure
[3] = substrate screening, mean of two measurements
[4] = substrate screening, measurement 1 of two
[5] = substrate screening, measurement 2 of two
[6] = two measurements, single values

## QPKKdec (QPKK-{AMC}; not fully specified (residue 4); printed as QPKKdec; also: decanoyl-lysine (which Lys not given here); UniProt P04637 317-320, looked up, fragment)
VsHdaH (1b); means of two measurements
  RFU means, VsHdaH (1b): 82 RFU
  RFU*2 means, VsHdaH (1b): 164 RFU*2
VsHdaH (1b); [3]
  [AMC] (nM), VsHdaH (1b), means: 80.08 nM
VsHdaH (1b); [4]
  [AMC] (nM), VsHdaH (1b): 61.52 nM
VsHdaH (1b); [5]
  [AMC] (nM), VsHdaH (1b): 98.63 nM
VsHdaH (1b); [6]
  RFU*2, VsHdaH (1b): 126 RFU*2 and 202 RFU*2
  RFU, VsHdaH (1b): 63 RFU and 101 RFU
RsPrpH (1b); means of two measurements
  RFU means, RsPrpH (1b): 37.5 RFU
  RFU*2 means, RsPrpH (1b): 75 RFU*2
RsPrpH (1b); [3]
  [AMC] (nM), RsPrpH (1b), means: 36.62 nM
RsPrpH (1b); [4]
  [AMC] (nM), RsPrpH (1b): 31.25 nM
RsPrpH (1b); [5]
  [AMC] (nM), RsPrpH (1b): 41.99 nM
RsPrpH (1b); [6]
  RFU*2, RsPrpH (1b): 64 RFU*2 and 86 RFU*2
  RFU, RsPrpH (1b): 32 RFU and 43 RFU
RwDmhA (1b); means of two measurements
  RFU means, RwDmhA (1b): 33 RFU
  RFU*2 means, RwDmhA (1b): 66 RFU*2
RwDmhA (1b); [3]
  [AMC] (nM), RwDmhA (1b), means: 32.23 nM
RwDmhA (1b); [4]
  [AMC] (nM), RwDmhA (1b): 18.55 nM
RwDmhA (1b); [5]
  [AMC] (nM), RwDmhA (1b): 45.90 nM
KpHdaH (1b); means of two measurements
  RFU means, KpHdaH (1b): 58 RFU
  RFU*2 means, KpHdaH (1b): 116 RFU*2
KpHdaH (1b); [3]
  [AMC] (nM), KpHdaH (1b), means: 56.64 nM
KpHdaH (1b); [4]
  [AMC] (nM), KpHdaH (1b): 48.83 nM
KpHdaH (1b); [5]
  [AMC] (nM), KpHdaH (1b): 64.45 nM
KpHdaH (1b); [6]
  RFU*2, KpHdaH (1b): 100 RFU*2 and 132 RFU*2
  RFU, KpHdaH (1b): 50 RFU and 66 RFU
BsAcuC (2c); means of two measurements
  RFU means, BsAcuC (2c): 1377 RFU
  RFU*2 means, BsAcuC (2c): 2754 RFU*2
BsAcuC (2c); [3]
  [AMC] (nM), BsAcuC (2c), means: 1344.73 nM
BsAcuC (2c); [6]
  RFU*2, BsAcuC (2c): 3196 RFU*2 and 2312 RFU*2
VcHdaH (5b); means of two measurements
  RFU means, VcHdaH (5b): 53.5 RFU
  RFU*2 means, VcHdaH (5b): 107 RFU*2
VcHdaH (5b); [3]
  [AMC] (nM), VcHdaH (5b), means: 52.25 nM
PsApaH (4); means of two measurements
  RFU means, PsApaH (4): 97 RFU
  RFU*2 means, PsApaH (4): 194 RFU*2
PsApaH (4); [3]
  [AMC] (nM), PsApaH (4), means: 94.73 nM
PsApaH (4); [4]
  [AMC] (nM), PsApaH (4): 91.80 nM
PsApaH (4); [5]
  [AMC] (nM), PsApaH (4): 97.66 nM
PsApaH (4); [6]
  RFU*2, PsApaH (4): 200 RFU*2 and 188 RFU*2
  RFU, PsApaH (4): 100 RFU and 94 RFU
LcApaH (3)
  RFU means, LcApaH (3): 167 RFU
  RFU*2, LcApaH (3): 294 RFU*2 and 374 RFU*2
  RFU*2 means, LcApaH (3): 334 RFU*2
  RFU, LcApaH (3): 147 RFU and 187 RFU
  [AMC] (nM), LcApaH (3): 143.55 nM and 182.62 nM
  [AMC] (nM), LcApaH (3), means: 163.09 nM
LpApaH (3)
  RFU means, LpApaH (3): 175 RFU
  RFU*2, LpApaH (3): 316 RFU*2 and 384 RFU*2
  RFU*2 means, LpApaH (3): 350 RFU*2
  RFU, LpApaH (3): 158 RFU and 192 RFU
  [AMC] (nM), LpApaH (3): 154.30 nM and 187.50 nM
  [AMC] (nM), LpApaH (3), means: 170.90 nM
Controls [1]
  RFU means, controls: 16210.5 RFU
  RFU*2, controls: 29980 RFU*2 and 34862 RFU*2
  RFU*2 means, controls: 32421 RFU*2
  RFU, controls: 14990 RFU and 17431 RFU
Controls [2]
  [AMC] (nM), controls, means: 15830.57 nM

B1: Klebsiella pneumoniae HdaH (enzyme, UniProt A0A377Z5F6 1-371, looked up)
chain: MKRKTGFFFDERCFWHSTGLHAVTLPVGGWVQPPAGGGHAESPETKRRMKNLMDVSGLTPQLALRSAAPASLEDLRRIHPDSYLERFKAISDNGGGMLGKEAPLGPGSYEIACLSAGLACAAVEAVLKGELDNAYSLSRPPGHHCLPDQSMGFCFLANIPIAVERAKAQLGLGKVAIIDWDVHHGNGTQHIYLQRDDVLTISLHQDGCFPPGYAGEDDRGVGAGEGYNINIPLLAGAGDDSWRYALETIVIPALARFEPELIIIACGYDANAMDPLARMQLHSDSFRAMTEQVQQAADRLCGGKLVMVHEGGYAESYVPFCGLAVMEALSGIRTEVQDPLLEFIQQQQPRATFAQFQRQAIDRLAQQFGLQ
notes: also called KpHdaH (1b); KpHdaH
Crystal structure
  stoichiometry N: 4
